Molecular target: Vibrio cholerae cytolysin E289A mutant, mature form (Vibrio cholerae)
Assay: cryo-EM structure

With “Vibrio cholerae cytolysin E289A mutant, mature form (natural protein)” the stoichiometry N was 7.

Source: article PMC9520032
